Results from patent US20220162308A1 (Novartis, published 2022).
Like-named read-outs stand apart in the source and are kept apart here.

Experiments:
[1] = molecular target: T1, Human CD48 on cells (human, UniProt P09326 27-220); experiment: cell-based or functional assay
T1 sequence: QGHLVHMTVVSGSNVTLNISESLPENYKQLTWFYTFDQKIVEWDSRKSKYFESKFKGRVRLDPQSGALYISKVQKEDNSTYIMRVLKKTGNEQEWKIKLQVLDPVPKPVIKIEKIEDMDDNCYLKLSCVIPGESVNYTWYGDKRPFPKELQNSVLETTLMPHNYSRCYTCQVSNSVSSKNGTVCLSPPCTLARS

[2] = molecular target: T1, Human CD48 on cells; experiment: cell-based or functional assay; remark: listed apart in the source
[3] = molecular target: T2, Human CD48 (soluble recombinant, SPR analyte) (human, UniProt P09326 27-220); experiment: SPR Biacore T200, antibody captured on protein A chip, soluble CD48 as analyte, 25 C, 1:1 model
T2 construct: also called Human CD48 antigen; not shown: C-terminal tag (hFc1P, APP6-Avi or His) is not specified for the analyte
T2 sequence: T1 sequence
Experimental: (§1) HBS-EP+pH 7.4 containing 10 mM HEPES, 150 mM NaCl, 3 mM EDTA and 0.05% (v/v) surfactant P20 (Teknova, ordering #H8022) was used as running buffer as well as for sample dilution.
(§2) The anti-CD48 antibodies were diluted at 5 μg/ml and injected on flow cells 2 and 4 for 20 sec at 10 μl/min. Capture level for all antibodies was 370-440 RU. Flow cells 1 and 3 were left blank (no antibody captured) and used as a reference surface. Human and cynomolgus CD48 served as analytes in solution. […] After each cycle of antibody capture and analyte injection, the chip surface was regenerated with 10 mM Glycine-HCl pH 1.5 (Cytiva, ordering #BR100354) for 2×30 s at a flow rate of 50 μl/min. Three runs with duplicate measurements and buffer blank injections were performed. Measurements were executed at 25° C. and data collected at a rate of 10 Hz.
(§3) Data were evaluated using the Biacore 8K evaluation software. The raw data were double referenced, i.e. the response of the measuring flow cells was corrected for the response of the reference flow cells (no antibody captured), and in a second step the response of a blank injection (buffer) was subtracted. Finally, the sensorgrams were fitted by applying a 1:1 interaction model with a constant fit of RI (0) and a global fit for Rₘₐₓ. Kinetic rate constants (kₐ, kd) and equilibrium dissociation constants (KD) were calculated. Data were processed separately for each run. The generated values were used to calculate average values and standard deviations of the respective equilibrium dissociation constants and the kinetic rate constants.

[4] = molecular target: T3, Cynomolgus CD48 (soluble recombinant, SPR analyte) (cynomolgus monkey (Macaca fascicularis), UniProt P09326 30-225 (human entry)); experiment: as above
T3 construct: also called cyno CD48; Cyno CD48; not shown: C-terminal tag (hFc1P, APP6-Avi or His) is not specified for the analyte
T3 chain: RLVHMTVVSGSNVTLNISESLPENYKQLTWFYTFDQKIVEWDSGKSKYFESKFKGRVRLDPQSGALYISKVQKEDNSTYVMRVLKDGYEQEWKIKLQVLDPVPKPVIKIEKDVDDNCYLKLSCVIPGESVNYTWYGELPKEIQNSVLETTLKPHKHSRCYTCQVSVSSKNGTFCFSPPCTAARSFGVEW
Experimental: as §1, §2, §3

[5] = molecular target: T2, Human CD48 (soluble recombinant, SPR …); experiment: SPR Biacore T200, antibody captured on Protein A chip, soluble CD48 as analyte, 1:1 model, Exp 2
Experimental: (§4) Binding to human and cyno CD48 for the WT IgG and DAPA (D265A and P329A mutation) variant was assessed for affinity determinations using Biacore. Kinetic rate constants was performed via SPR using the Biacore T200 instrument (Cytiva, formerly GE Healthcare Lifesciences) as described below.
(§5) The Protein A capture method was utilized in order to determine kinetics for the antibodies. […] The human CD48 and cyno CD48 concentration started at 50 nM and 200 nM respectively, and were serially diluted at one part to one part for nine concentrations. Regeneration was performed at the end of each concentration washing with the Glycine pH1.5 (Cytiva, cat #BR100354).
(§6) Double reference subtraction was completed to generate the final data. The raw data was fitted to a 1:1 binding model, with parameter(s) Rmax set to local.

[6] = molecular target: T3, Cynomolgus CD48 (soluble recombinant, …); experiment: as above
Experimental: as §4, §5, §6

[7] = molecular target: T2, Human CD48 (soluble recombinant, SPR …); experiment: SPR Biacore T200, antibody captured on Protein A chip, soluble CD48 as analyte, 1:1 model, Exp 1
Experimental: as §4, §5, §6

[8] = molecular target: T3, Cynomolgus CD48 (soluble recombinant, …); experiment: as above
Experimental: as §4, §5, §6

B1: NY920-DAPA-VC-MMAE (antibody, human IgG1, kappa)
heavy: EVQLLESGGGLVQPGGSLRLSCAASGFTFSSFAMSWVRQAPGKGLEWVSAISGFGGSTYYADSVKGRFTISRDNSKNTLYLQMNSLRAEDTAVYYCARQFWEDQPFYFDYWGQGTLVTVSSASTKGPSVFPLAPSSKSTSGGTAALGCLVKDYFPCPVTVSWNSGALTSGVHTFPAVLQSSGLYSLSSVVTVPSSSLGTQTYICNVNHKPSNTKVDKRVEPKSCDKTHTCPPCPAPELLGGPSVFLFPPKPKDTLMISRTPEVTCVVVAVSHEDPEVKFNWYVDGVEVHNAKTKPREEQYNSTYRVVSVLTVLHQDWLNGKEYKCKVSNKALAAPIEKTISKAKGQPREPQVYTLPPSREEMTKNQVSLTCLVKGFYPCDIAVEWESNGQPENNYKTTPPVLDSDGSFFLYSKLTVDKSRWQQGNVFSCSVMHEALHNHYTQKSLSLSPGK
light: not shown
modifications: VC-MMAE (MC-valcit-PAB-MMAE) on the engineered cysteines (E152C, S375C, EU numbering)
B1 was tested, and the “Amax (Span), KMS-20” value [1] was 94, the “Amax (Span), KMS-21-BM” value [1] was 92.9 and the “Amax (Span), KMS-27” value [1] was 83.9. For the same binder, the “Amax (Span), NCI-H929” value [1] was 89.7, the “IC50 (nM), cell proliferation/survival (CellTiter-Glo), KMS-20” value [1] was 0.077 nM and the “IC50 (nM), cell proliferation/survival (CellTiter-Glo), KMS-21-BM” value [1] was 0.026 nM. The “IC50 (nM), cell proliferation/survival (CellTiter-Glo), KMS-27” value [1] was 0.028 nM and the “IC50 (nM), cell proliferation/survival (CellTiter-Glo), NCI-H929” value [1] was 0.027 nM.

B2: NY938 (antibody, human IgG1, kappa)
heavy: not shown
light: DIQMTQSPSSLSASVGDRVTITCKASQDVGTAVAWYQQKPGKVPKLLIYWASTRHTGVPSRFSGSGSGTDFTLTISSLQPEDVATYYCQQYSTYPITFGQGTKLEIKRTVAAPSVFIFPPSDEQLKSGTASVVCLLNNFYPREAKVQWKVDNALQSGNSQESVTEQDSKDSTYSLSSTLTLSKADYEKHKVYACEVTHQGLSSPVTKSFNRGEC
notes: also called anti-CD48-NY938-hIgG1_kappa (a-fuc); NY938-IgG
With B2 the “IC50 (nM), cell proliferation/survival (CellTiter-Glo), KMS-21-BM, with anti-human Fc-VC-MMAE” value [2] was 0.008 nM, the “IC50 (nM), cell proliferation/survival (CellTiter-Glo), KMS-27, with anti-human Fc-VC-MMAE” value [2] was under 0.001 nM and the “IC50 (nM), cell proliferation/survival (CellTiter-Glo), NCI-H929, with anti-human Fc-VC-MMAE” value [2] was 0.004 nM. The “Span (Amax), KMS-21-BM, with anti-human Fc-VC-MMAE” value [2] was 98.9, the “Span (Amax), KMS-27, with anti-human Fc-VC-MMAE” value [2] was over 100 and the “Span (Amax), NCI-H929, with anti-human Fc-VC-MMAE” value [2] was 99.7. For the same binder, the Kd [3] was 0.5 nM, the koff [3] was 0.00013 s⁻¹ and the kon [3] was 250000 M⁻¹ s⁻¹. It also gave a Kd [4] of 1.5 nM, a koff [4] of 0.00037 s⁻¹ and a kon [4] of 250000 M⁻¹ s⁻¹.

B3: NY938-CysMab-VC-MMAE (antibody, human IgG1, kappa)
heavy: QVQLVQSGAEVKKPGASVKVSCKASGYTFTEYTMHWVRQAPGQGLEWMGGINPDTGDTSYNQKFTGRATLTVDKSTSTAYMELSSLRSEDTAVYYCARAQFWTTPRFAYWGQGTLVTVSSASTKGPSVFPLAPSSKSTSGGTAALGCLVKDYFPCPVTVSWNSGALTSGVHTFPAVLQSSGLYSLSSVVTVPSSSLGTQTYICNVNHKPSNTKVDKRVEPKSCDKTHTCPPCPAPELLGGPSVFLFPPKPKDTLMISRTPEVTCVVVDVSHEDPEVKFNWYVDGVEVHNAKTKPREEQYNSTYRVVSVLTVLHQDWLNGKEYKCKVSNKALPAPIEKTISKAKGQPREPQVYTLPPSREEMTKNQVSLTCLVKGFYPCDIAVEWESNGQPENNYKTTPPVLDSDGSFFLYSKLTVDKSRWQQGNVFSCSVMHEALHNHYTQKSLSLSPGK
light: B2 light
modifications: VC-MMAE (MC-valcit-PAB-MMAE) on the engineered cysteines (E152C, S375C, EU numbering)
With B3 the “Amax (Span), KMS-20” value [1] was 99.2, the “Amax (Span), KMS-21-BM” value [1] was 105 and the “Amax (Span), KMS-27” value [1] was 98.6. The “Amax (Span), NCI-H929” value [1] was 101, the “IC50 (nM), cell proliferation/survival (CellTiter-Glo), KMS-20” value [1] was 0.043 nM and the “IC50 (nM), cell proliferation/survival (CellTiter-Glo), KMS-21-BM” value [1] was 0.021 nM. The “IC50 (nM), cell proliferation/survival (CellTiter-Glo), KMS-27” value [1] was 0.017 nM and the “IC50 (nM), cell proliferation/survival (CellTiter-Glo), NCI-H929” value [1] was 0.018 nM.

B4: NY938-DAPA-VC-MMAE (antibody, human IgG1, kappa)
heavy: QVQLVQSGAEVKKPGASVKVSCKASGYTFTEYTMHWVRQAPGQGLEWMGGINPDTGDTSYNQKFTGRATLTVDKSTSTAYMELSSLRSEDTAVYYCARAQFWTTPRFAYWGQGTLVTVSSASTKGPSVFPLAPSSKSTSGGTAALGCLVKDYFPCPVTVSWNSGALTSGVHTFPAVLQSSGLYSLSSVVTVPSSSLGTQTYICNVNHKPSNTKVDKRVEPKSCDKTHTCPPCPAPELLGGPSVFLFPPKPKDTLMISRTPEVTCVVVAVSHEDPEVKFNWYVDGVEVHNAKTKPREEQYNSTYRVVSVLTVLHQDWLNGKEYKCKVSNKALAAPIEKTISKAKGQPREPQVYTLPPSREEMTKNQVSLTCLVKGFYPCDIAVEWESNGQPENNYKTTPPVLDSDGSFFLYSKLTVDKSRWQQGNVFSCSVMHEALHNHYTQKSLSLSPGK
light: B2 light
modifications: VC-MMAE (MC-valcit-PAB-MMAE) on the engineered cysteines (E152C, S375C, EU numbering)
With B4 the “Amax (Span), KMS-20” value [1] was 99.8, the “Amax (Span), KMS-21-BM” value [1] was 105 and the “Amax (Span), KMS-27” value [1] was 108. The “Amax (Span), NCI-H929” value [1] was 105, the “IC50 (nM), cell proliferation/survival (CellTiter-Glo), KMS-20” value [1] was 0.037 nM and the “IC50 (nM), cell proliferation/survival (CellTiter-Glo), KMS-21-BM” value [1] was 0.021 nM. The “IC50 (nM), cell proliferation/survival (CellTiter-Glo), KMS-27” value [1] was 0.014 nM and the “IC50 (nM), cell proliferation/survival (CellTiter-Glo), NCI-H929” value [1] was 0.016 nM.

B5: NY938 DAPA (antibody, human IgG1, kappa, name in EU numbering)
heavy: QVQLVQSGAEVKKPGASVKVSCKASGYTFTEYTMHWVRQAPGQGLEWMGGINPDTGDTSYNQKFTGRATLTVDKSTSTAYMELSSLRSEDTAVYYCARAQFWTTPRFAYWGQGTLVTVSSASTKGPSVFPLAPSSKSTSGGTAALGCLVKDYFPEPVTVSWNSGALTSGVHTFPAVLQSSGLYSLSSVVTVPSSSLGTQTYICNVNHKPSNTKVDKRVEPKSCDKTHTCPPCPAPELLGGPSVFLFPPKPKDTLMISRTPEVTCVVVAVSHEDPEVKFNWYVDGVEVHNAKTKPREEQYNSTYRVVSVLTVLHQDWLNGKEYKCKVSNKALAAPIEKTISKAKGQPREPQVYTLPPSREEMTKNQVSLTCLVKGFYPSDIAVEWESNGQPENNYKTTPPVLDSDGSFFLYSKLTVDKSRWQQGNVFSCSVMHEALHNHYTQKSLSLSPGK
light: B2 light
notes: Positions are EU numbers; also called NY938 DAPA IgG variant
Binder B5 has a Kd [5] of 0.252 nM, a koff [5] of 0.000115 s⁻¹ and a kon [5] of 456000 M⁻¹ s⁻¹. It also gave a Kd [6] of 0.774 nM, a koff [6] of 0.000316 s⁻¹ and a kon [6] of 409000 M⁻¹ s⁻¹. The Kd [7] was 0.296 nM, the koff [7] was 0.000104 s⁻¹ and the kon [7] was 352000 M⁻¹ s⁻¹. For the same binder, the Kd [8] was 1.07 nM, the koff [8] was 0.000289 s⁻¹ and the kon [8] was 271000 M⁻¹ s⁻¹.

B6: CD48A-CysMab-VC-MMAE (antibody, human IgG1, kappa)
heavy: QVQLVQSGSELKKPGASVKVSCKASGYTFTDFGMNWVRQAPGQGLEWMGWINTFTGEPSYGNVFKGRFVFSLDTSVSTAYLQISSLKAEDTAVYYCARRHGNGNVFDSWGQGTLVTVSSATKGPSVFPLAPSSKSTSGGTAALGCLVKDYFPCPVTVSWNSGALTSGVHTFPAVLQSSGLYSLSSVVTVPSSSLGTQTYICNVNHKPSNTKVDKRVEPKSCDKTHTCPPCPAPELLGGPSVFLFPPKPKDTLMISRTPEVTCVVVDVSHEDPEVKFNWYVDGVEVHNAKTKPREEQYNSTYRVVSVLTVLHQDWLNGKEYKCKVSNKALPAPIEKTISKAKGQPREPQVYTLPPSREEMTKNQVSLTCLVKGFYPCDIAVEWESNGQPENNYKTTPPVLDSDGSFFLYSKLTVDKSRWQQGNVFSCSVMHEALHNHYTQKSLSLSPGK
light: EIVLTQSPDFQSVTPKEKVTITCRASQSIGSNIHWYQQKPDQSPKLLIKYTSESISGVPSRFSGSGSGTDFTLTINSLEAEDAATYYCQQSNSWPLTFGGGTKVEIKRTVAAPSVFIFPPSDEQLKSGTASVVCLLNNFYPREAKVQWKVDNALQSGNSQESVTEQDSKDSTYSLSSTLTLSKADYEKHKVYACEVTHQGLSSPVTKSFNRGEC
modifications: MC-valcit-PAB-MMAE on the engineered cysteines (CysMab: E152C, S375C, EU numbering); DAR 3.9
In the case of B6, the “IC50 (nM), cell proliferation/survival (CellTiter-Glo), KMS-21-BM” value [2] is reported as 0.062 nM, the “IC50 (nM), cell proliferation/survival (CellTiter-Glo), KMS-27” value [2] is reported as 6.1 nM and the “IC50 (nM), cell proliferation/survival (CellTiter-Glo), NCI-H929” value [2] is reported as 2.1 nM.
